Data published in patent US20250243263A1 (VOYAGER THERAPEUTICS, published 2025).
Where no end group is shown, it is not given here. [ ]: non-standard residue; d: D form. pT = C[C@@H](OP(=O)(O)O)[C@H](N)C(=O)O

T1: AT8 peptide (amino acids 195-215 of tau) (human, phospho-peptide, phosphorylated sites not stated in the example; immobilized on streptavidin tips)
T1 peptide: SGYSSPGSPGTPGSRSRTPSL

T2: Tau(pS404) peptide (human, phosphoserine at S404 of tau (peptide position 18))
T2 construct: also called TauS404 peptide; TauS404
T2 peptide: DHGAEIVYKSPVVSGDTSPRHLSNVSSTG

T3: AT270 peptide (pT181; Tau172-186) (human)
T3 peptide: PAKTPPAPK[pT]PPSSG

B1: VY003 (antibody, V domains shown)
VH: EVQMVESGGGLVQPGGSLTLSCAASGFTFSSYRMNWVRQAPGKGLEWVSYISSSRSAIYYADSVKGRFTISRDNAKNSLYLQMNSLRDEDTAVYYCATLGIGYWGQGTLVTVSS
VL: DIVMTQTPLSSPVTLGQPASISCRSSQSLVHSDGNTYLSWLQQRPGQPPRLLIYKISNRFSGVPDRFSGSGAGTDFTLKITRVEAEDVGIYYCMQVTQFPRTFGQGTKVEIR
B2: VY014 (antibody, V domains shown)
VH: EVQLVESGGGLVQPGGSLRLSCAASGFTFNNYDMHWVRQAAGKGLEWVSTIGAAGDTYYPGSVKGRFIISRENAKNSLYLQMNSLRAGDTAVYYCARAGETLEGATIGYYYGMDVWGQGTTVTVSS
VL: DILMTQSPLSLPVTPGEPASISCRSSQSLLHSNGYNYLDWYLQKPGQSPQLLIYLGSNRASGVPDRFSGSGSGTDFTLKFSRVEAEDVGLYYCMQALQIPLTFGGGTKVEIK
B3: VY020 (antibody, V domains shown)
VH: EVQLVESGGGLVQPGGSLRLSCAASGFTFSSYSMNWVRQAPGKGLEWISYISSSNSTIKYADSVKGRFTISRDNAKNSLYLQMNSLRDEDTAVYYCARRSLGDYWGQGTLVIVSS
VL: EIVLTQSPATLSLSPGERATLSCRASQSVSSYLAWYLQKPGQAPRLLIYDVSNRATGIPARFSGSGSGTDFTLTISRLEPEDFAVYYCQQRRNWPYTFGQGTKLEIK

Tests used:
[1] = target: enriched paired helical filament tau protein (ePHF; sarkosyl insoluble tau) (human, UniProt P10636 2-758); assay: direct ELISA, ePHF coated
Chain of enriched paired helical filament tau protein (ePHF; sarkosyl insoluble tau) (P10636 other isoform, or with tags, fused parts or gaps limits assumed): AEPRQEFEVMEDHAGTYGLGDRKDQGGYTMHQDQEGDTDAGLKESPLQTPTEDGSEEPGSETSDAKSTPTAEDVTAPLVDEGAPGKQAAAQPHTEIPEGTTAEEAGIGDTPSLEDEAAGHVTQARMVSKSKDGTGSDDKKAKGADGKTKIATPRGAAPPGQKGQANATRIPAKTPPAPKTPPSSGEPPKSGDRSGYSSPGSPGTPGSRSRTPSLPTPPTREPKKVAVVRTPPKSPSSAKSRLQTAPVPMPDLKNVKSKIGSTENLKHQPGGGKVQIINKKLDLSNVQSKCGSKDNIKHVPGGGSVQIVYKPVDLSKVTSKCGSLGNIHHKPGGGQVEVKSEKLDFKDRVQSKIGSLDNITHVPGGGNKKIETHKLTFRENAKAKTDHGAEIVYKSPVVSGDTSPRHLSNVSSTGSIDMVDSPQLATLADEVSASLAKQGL
Experimental: (§1) A set of recombinant human IgG1 antibodies were prepared with clone-specific variable domain pairs selected from those presented in Table 1 and human IgG1 constant domains. These candidate antibodies were analyzed for binding to ePHF and specificity for ePHF over wild type tau by direct ELISA.
(§2) For direct ePHF and wildtype tau ELISA, plates were first coated with ePHF or wild type tau. Antigen solutions were prepared in PBS and 50 μL were pipetted into each well. Plates were covered and incubated for one hour at 37° C. or overnight at 4° C. Plates were then washed and blocked by addition of 150 μl of blocking buffer to each well and incubated one hour at room temperature. Plates were then washed before addition of serially diluted candidate antibody samples prepared in blocking buffer. Detection of candidate antibody binding was carried out by washing plates and adding a solution of enzyme-labeled secondary antibody in blocking buffer to each well. Secondary antibody binding was detected by addition of substrate and spectrophotometric analysis of resulting reaction product.

[2] = target: T1, AT8 peptide (amino acids 195-215 of tau); assay: BLI (Octet), phospho-peptide on streptavidin tips
Experimental: Briefly, phospho-peptides were immobilized on streptavidin biosensor tips and the binding ability of each antibody was assessed using an eight-point concentration gradient.

[3] = target: Tau191-214 phospho-peptide (pS199/pT205) (human, phosphoserine at S199 and phosphothreonine at T205 of tau (peptide positions 9, 15); SCBio-4PEG label); assay: one point ELISA
Chain of Tau191-214 phospho-peptide (pS199/pT205) (human, phosphoserine at S199 and phosphothreonine at T205 of tau (peptide positions 9, 15); SCBio-4PEG label) (peptide, as listed by the source): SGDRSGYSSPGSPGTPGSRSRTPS
Source text: (§3) One-point ELISA was used to determine differential binding based on the individual phosphorylation patterns of each peptide. OD values (450 nm) were collected (as shown in Table 13), where a stronger positive signal is shown as a higher OD value, which is indicative of increased binding.

[4] = target: Tau191-214 phospho-peptide (pS199/pS202) (human, phosphoserine at S199 and S202 of tau (peptide positions 9, 12); SCBio-4PEG label); assay: one point ELISA
Source text: as §3

[5] = target: T4, Tau191-214 phospho-peptide (pS199) (human, phosphoserine at S199 of tau (peptide position 9); SCBio-4PEG label); assay: one point ELISA
T4 construct: also called pS199 peptide
Source text: as §3

[6] = target: Tau191-214 phospho-peptide (pT205) (human, phosphothreonine at T205 of tau (peptide position 15); SCBio-4PEG label); assay: one point ELISA
Source text: as §3

[7] = target: Tau191-214 phospho-peptide (pS202) (human, phosphoserine at S202 of tau (peptide position 12); SCBio-4PEG label); assay: one point ELISA
Source text: as §3

[8] = target: T5, pS199-old (SCBio-4PEG-Peptide, Tau191-214) (human, phosphoserine at S199 of tau by the row label; SCBio-4PEG label); assay: one point ELISA
T5 construct: The suffix -old is not explained
Source text: as §3

iPHF = target: T6, iPHF (UniProt P10636-8 2-441, limits assumed); assay: BLI (Octet), antibody on biosensor tip, iPHF in solution
T6 construct: also called iPHF tau
T6 sequence (P10636 other isoform, or with tags, fused parts or gaps limits assumed): as the sequence (P10636 other isoform, or with tags, fused parts or gaps limits assumed) above
Experimental: Anti-human tau antibodies were assessed for affinity for iPHF by Octet (ForteBio, Menlo Park, CA) analysis. A set of recombinant human IgG1 antibodies were prepared with clone-specific variable domain pairs selected from those presented in Table 1 and human IgG1 constant domains. Candidate antibodies were immobilized on biosensor tips (ForteBio) in kinetic buffer (ForteBio). Biosensor tips were then washed before introduction of a solution of iPHF in kinetic buffer for analysis of association and dissociation with candidate antibodies.

wild type tau = target: T7, wild type tau (human, UniProt P10636 2-758); assay: direct ELISA, wild type tau coated
T7 construct: also called WT
T7 sequence (P10636 other isoform, or with tags, fused parts or gaps limits assumed): as above
Experimental: as §1, §2

Tau(pS404) peptide = target: T2, Tau(pS404) peptide; assay: competitive ELISA on TauS404 peptide, competitor AC04 peptide
[9] = target: T3, AT270 peptide (pT181; Tau172-186); assay: one point ELISA
[10] = target: T4, Tau191-214 phospho-peptide (pS199); assay: BLI

Row | Binder | EC50 [1] | Kd [2] | OD (450 nm) [3] | OD (450 nm) [4] | OD (450 nm) [5] | OD (450 nm) [6] | OD (450 nm) [7] | OD (450 nm) [8] | Kd (iPHF) | EC50 (wild type tau) | binding result (Tau(pS404) peptide) | binding result [9] | binding result [10] | binding result [2]
1 | B1 | 0.06 nM | 0.0124 nM | 0.119 OD450 | 0.082 OD450 | 0.065 OD450 | 0.06 OD450 | 0.065 OD450 | 0.062 OD450 | 4.6 nM | – | – | – | – | –
2 | B2 | 6.23 nM | – | – | – | – | – | – | – | 5.3 nM | 0.04 nM | binds | – | – | –
3 | B3 | – | – | – | – | – | – | – | – | 2.6 nM | – | – | no binding | no binding | no binding
